Measured values published in patent publication US20240391992A1 (Eli Lilly, published 2024).

B1: human XCL1 (ligand)
chain: VGSEVSDKRTCVSLTTQRLPVSRIKTYTITEGSLRAVIFITKRGLKVCADPQATWVRDVVRSMDRKSNTRNNMIQTKPTGTQQSTNTAVTLTG
B2: Human XCL1 CC3 (ligand)
chain: VGSEVSDKRTCVSLTTQRLPCSRIKTYTITEGSLRAVIFITKRGLKVCADPQATWVRDCVRSMDRKSNTRNNMIQTKPTGTQQSTNTAVTLTG

Tests used:
[1] = target: cynomolgus (cyno) XCL1 (cynomolgus); assay: flow cytometry, 293T cells with 1 ug/mL chemokine and 100 nM isotype control antibody, anti-human-Fc/PE
human XCL1 (human) = human XCL1 (human) (UniProt P47992); assay: as above
human XCL2 (human) = human XCL2 (human) (UniProt Q9UBD3); assay: as above
mouse XCL1 (mouse) = mouse XCL1 (mouse) (UniProt P47993); assay: as above
Sequence of mouse XCL1 (mouse) (P47993 22-114 limits assumed): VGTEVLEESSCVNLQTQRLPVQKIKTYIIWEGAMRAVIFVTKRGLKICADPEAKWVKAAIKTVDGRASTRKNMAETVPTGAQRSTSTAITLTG

rat XCL1 (rat) = rat XCL1 (rat) (UniProt P51672); assay: as above
Sequence of rat XCL1 (rat) (P51672 22-114 limits assumed): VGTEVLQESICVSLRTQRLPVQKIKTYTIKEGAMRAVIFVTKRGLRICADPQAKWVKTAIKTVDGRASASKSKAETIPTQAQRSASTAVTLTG

human XCR1 = target: T1, human XCR1 (human, UniProt P46094 1-333); assay: cell-based or functional assay
T1 sequence (looked up): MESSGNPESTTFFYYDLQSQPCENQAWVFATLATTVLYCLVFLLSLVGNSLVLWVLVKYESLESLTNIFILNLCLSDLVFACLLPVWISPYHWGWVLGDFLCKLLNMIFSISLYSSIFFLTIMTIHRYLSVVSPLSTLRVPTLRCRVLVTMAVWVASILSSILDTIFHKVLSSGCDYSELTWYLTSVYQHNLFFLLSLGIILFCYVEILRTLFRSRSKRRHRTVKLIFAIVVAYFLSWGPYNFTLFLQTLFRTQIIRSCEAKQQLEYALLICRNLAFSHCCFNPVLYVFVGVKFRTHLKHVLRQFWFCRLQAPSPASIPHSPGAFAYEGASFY

Row | Molecule | MFI [1] [MFI] | MFI (human XCL1 (human)) [MFI] | MFI (human XCL2 (human)) [MFI] | MFI (mouse XCL1 (mouse)) [MFI] | MFI (rat XCL1 (rat)) [MFI] | GeoMean EC50 (nM), migration of XCR1-expressing Ba/F3 cells (Boyden chamber) (human XCR1) [nM]
1 | hIgG1-AAS isotype control antibody | 8.4 | 7.6 | 8.6 | 8 | 8.2 | –
2 | B1 | – | – | – | – | – | 858
3 | B2 | – | – | – | – | – | 115
